{"source": "patent US20210079378A1", "about": "(Chugai, published 2021)", "binders": {"B1": {"name": "Anti-IL31R wild type (antibody, human IgG1, lambda, V domains shown)", "VH": "not shown", "VL": "LPVLTQPPSVSVAPGQTARITCGGNNIGSKTVYWYQQEPGQAPVLVVYDDTDRPAGIPERFSGANSGNTATLTISRVEAGDEADYYCQVWDSSTDHGVFGGGTKLTVLG", "notes": "Antibody described in WO 2007/142325; also called anti-IL-31 receptor antibody H chain (WT)/L chain (WT)"}, "B2": {"name": "H3pI/L73 (antibody, IgG1, V domains shown)", "VH": "QVQLQESGPGLVKPSETLSLTCAVSGHSISHDHAHSWVRQPPGEGLEWIGYISYSGITNYNPSLKGRVTISRDTSKNQFSLKLSSVTAADTAAYYCARSLARTTAMDYWGEGTLVTVSS", "VL": "DIQMTQSPSSLSASVGDSVTITCQASQHISSHLNWYQQKPGKAPELLIYYGSHLHSGVPSRFSGSGSGTDFTFTISSLEAEDAATYYCGQGNRLPYTFGQGTKVEIE", "notes": "Tested as IgG1; also called H3pI/L73-IgG1; H3pl/L73"}, "B3": {"name": "H170/L82 (antibody, IgG1, V domains shown)", "VH": "QVQLQESGPGLVKPSETLSLTCAVSGHSISHHHAHSWVRQPPGEGLEWIGYISYSGITHYNPHLKGRVTISRDTSKNQFSLKLSSVTAADTAAYYCARVLARITAMDHWGEGTLVTVSS", "VL": "DIQMTQSPSSLSASVGDSVTITCQASQDISSHLNWYQQKPGKAPELLIYYGSHLHSGVPSRFSGSGSGTDFTFTISSLEAEDAATYYCGQGNRLPYTFGQGTKVEIE", "notes": "Tested as IgG1; also called H170/L82-IgG1"}, "B4": {"name": "CLH5/L73 (antibody, IgG1, V domains shown)", "VH": "QVQLQESGPGLVKPSETLSLTCAVSGYSISHDHAWSWVRQPPGEGLEWIGHISYSGITNYNPHLKGRVTISRDTSKNQFSLKLSSVTAADTAAYYCARFLARITAHDHWGEGTLVTVSS", "VL": "DIQMTQSPSSLSASVGDSVTITCQASQHISSHLNWYQQKPGKAPELLIYYGSHLHSGVPSRFSGSGSGTDFTFTISSLEAEDAATYYCGQGNRLPYTFGQGTKVEIE", "notes": "Expressed and purified as IgG"}}, "key": {"[1]": {"molecular_target": "T1, soluble mouse IL-31 receptor (mouse, UniProt Q8K5B1 19-499)", "T1 construct": "Soluble form", "T1 sequence (looked up)": "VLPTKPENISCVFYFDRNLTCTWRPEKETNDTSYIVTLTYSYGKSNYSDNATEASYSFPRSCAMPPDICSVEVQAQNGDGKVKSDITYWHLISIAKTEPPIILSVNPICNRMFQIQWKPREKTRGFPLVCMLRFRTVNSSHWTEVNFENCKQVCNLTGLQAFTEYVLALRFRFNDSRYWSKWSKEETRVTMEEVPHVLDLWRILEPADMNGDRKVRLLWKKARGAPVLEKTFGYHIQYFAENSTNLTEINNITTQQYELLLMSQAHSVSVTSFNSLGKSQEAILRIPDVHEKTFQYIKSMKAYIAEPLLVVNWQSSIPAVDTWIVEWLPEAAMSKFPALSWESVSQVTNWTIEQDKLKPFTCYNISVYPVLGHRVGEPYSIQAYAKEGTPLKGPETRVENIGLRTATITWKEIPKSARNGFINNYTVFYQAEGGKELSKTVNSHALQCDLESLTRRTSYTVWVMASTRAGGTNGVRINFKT", "test": "SPR Biacore T100, 25C, pH 5.5; antibody captured on protein A/G chip, soluble mouse IL-31 receptor analyte; pH 5.5", "protocol": "Kinetic analysis of antigen-antibody reactions at pH 5.5 and pH 7.4 was carried out using a Biacore T100™ surface plasmon resonance system (GE Healthcare) for the two types of antibodies prepared as mentioned above: Anti-IL31R wild type and Anti-IL31R clone 1 (buffer: DPBS(−) (pH 7.4 or pH 5.5), 150 mM NaCl, 0.01% TWEEN® 20 (polyoxyethelene sorbitan monolaurate), 0.02% NaN₃). The antibodies were bound to a sensor chip on which recomb-protein A/G (Pierce) was immobilized by amine coupling, and then the soluble mouse IL-31 receptor (prepared according to the method described in WO 2007/142325) adjusted to an appropriate concentration was injected therein as an analyte. All the measurements were carried out at 25° C. Association rate constants kₐ (1/Ms) and dissociation rate constants kd (1/s) were calculated using Biacore T100™ Evaluation Software (GE Healthcare), and dissociation constants KD (M) were calculated based on those values (Table 16). Furthermore, the ratio of affinity at pH 5.5 and pH 7.4 was calculated for each clone to evaluate the pH-dependent binding."}, "[2]": {"molecular_target": "T2, recombinant soluble human IL-6 receptor (SR344) (human, UniProt P08887 20-344)", "T2 construct": "In the membrane-type IL-6 receptor assays the same protein was biotinylated and immobilised on the sensor chip via streptavidin, as stated under assay; also called soluble IL-6 receptor; membrane-type IL-6 receptor (as biotinylated SR344 immobilised on the chip)", "T2 sequence (looked up)": "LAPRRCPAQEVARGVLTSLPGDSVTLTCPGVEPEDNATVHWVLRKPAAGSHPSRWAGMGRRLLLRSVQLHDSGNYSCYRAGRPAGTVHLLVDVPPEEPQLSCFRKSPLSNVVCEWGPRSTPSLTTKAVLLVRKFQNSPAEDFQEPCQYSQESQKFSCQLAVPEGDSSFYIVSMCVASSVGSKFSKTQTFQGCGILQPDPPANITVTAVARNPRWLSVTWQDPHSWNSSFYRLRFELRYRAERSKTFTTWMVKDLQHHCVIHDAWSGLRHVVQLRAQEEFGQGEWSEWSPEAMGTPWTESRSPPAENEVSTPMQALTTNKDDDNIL", "test": "SPR Biacore T100, 37C; antibody captured on protein A/G chip, SR344 analyte; pH 5.8 vs pH 7.4", "protocol": "Kinetic analyses of antigen-antibody reactions at pH 5.8 and pH 7.4 were carried out using a Biacore™ T100 surface plasmon resonance system (GE Healthcare) on the four antibodies: humanized PM1 antibody (WT) and H3pI/L73, CLH5/L73, and H170/L82 produced in Examples 2 and 4 (buffer: 10 mM MES (pH 7.4 or pH 5.8), 150 mM NaCl, and 0.05% TWEEN® 20 (polyoxyethelene sorbitan monolaurate)). Various antibodies were bound onto a sensor chip immobilized with recomb-protein A/G (Pierce) by amine coupling. SR344 adjusted to concentrations of 9.8 to 400 nM was injected to the chip as an analyte. […] All the measurements were carried out at 37° C. Association rate constants kₐ (1/Ms) and dissociation rate constants kd (1/s) were calculated using Biacore T100™ Evaluation Software (GE Healthcare), and dissociation constants KD (M) were calculated on the basis of those values (Table 5). Moreover, the ratio of the affinities at pH 5.8 and pH 7.4 were calculated for each clone to evaluate pH-dependent binding. All the measurements were carried out at 37° C."}}, "data": [{"binder": "B1", "values": [{"measurement": "kon", "setting": "[1]", "value": 51000, "unit": "M⁻¹ s⁻¹"}]}, {"binder": "B2", "values": [{"measurement": "affinity ratio between pH 5.8 and pH 7.4", "setting": "[2]", "value": 41, "unit": "fold"}]}, {"binder": "B3", "values": [{"measurement": "affinity ratio between pH 5.8 and pH 7.4", "setting": "[2]", "value": 394, "unit": "fold"}]}, {"binder": "B4", "values": [{"measurement": "affinity ratio between pH 5.8 and pH 7.4", "setting": "[2]", "value": 66, "unit": "fold"}]}]}
